{
  "source": "patent US11499162B2",
  "about": "“Plants having increased tolerance to herbicides” (BASF SE, priority 2016, dated 2022)",
  "molecules": {"B1": {"name": "S247P: mutated TriA variant of SEQ ID NO: 2 (protein)", "chain": "MQTLSIQHGTLVTMDQYRRVLGDSWVHVQDGRIVALGVHAESVPPPADRVIDARGKVVLPGFINAHTHVNQILLRGGPSHGRQLYDWLFNVLYPGQKAMRPEDVAVAVRLYCAEAVRSGITTINDNADSAIYPGNIEAAMAVYGEVGVRVVYARMFFDRMDGRIQGYVDALKARSPQVELCSIMEETAVAKDRITALSDQYHGTAGGRISVWPAPAITPAVTVEGMRWAQAFARDRAVMWTLHMAEPDHDERLHWMSPAEYMECYGLLDERLQVAHCVYFDRKDVRLLHRHNVKVASQVVSNAYLGSGVAPVPEMVERGMAVGIGTDDGNCNDSVNMIGDMKFMAHIHRAVHRDADVLTPEKILEMATIDGARSLGMDHEIGSIETGKRADLILLDLRHPQTTPHHHLAATIVFQAYGNEVDTVLIDGNVVMENRRLSFLPPERELAFLEEAQSRATAILQRANMVANPAWRSL", "modifications": "Pseudomonas"}, "B2": {"name": "D250N: mutated TriA variant of SEQ ID NO: 2 (protein)", "chain": "B1 chain with P247S, D250N", "modifications": "Pseudomonas"}, "B3": {"name": "D250E: mutated TriA variant of SEQ ID NO: 2 (protein)", "chain": "B1 chain with P247S, D250E", "modifications": "Pseudomonas"}, "B4": {"name": "E251D: mutated TriA variant of SEQ ID NO: 2 (protein)", "chain": "B1 chain with P247S, E251D", "modifications": "Pseudomonas"}, "B5": {"name": "D248S: mutated TriA variant of SEQ ID NO: 2 (protein)", "chain": "B1 chain with P247S, D248S", "modifications": "Pseudomonas"}, "B6": {"name": "H249I: mutated TriA variant of SEQ ID NO: 2 (protein)", "chain": "B1 chain with P247S, H249I", "modifications": "Pseudomonas"}, "B7": {"name": "N70V: mutated TriA variant of SEQ ID NO: 2 (protein)", "chain": "B1 chain with N70V, P247S", "modifications": "Pseudomonas"}, "B8": {"name": "D248N: mutated TriA variant of SEQ ID NO: 2 (protein)", "chain": "B1 chain with P247S, D248N", "modifications": "Pseudomonas"}, "B9": {"name": "D248G: mutated TriA variant of SEQ ID NO: 2 (protein)", "chain": "B1 chain with P247S, D248G", "modifications": "Pseudomonas"}, "B10": {"name": "H249V: mutated TriA variant of SEQ ID NO: 2 (protein)", "chain": "B1 chain with P247S, H249V", "modifications": "Pseudomonas"}, "B11": {"name": "H249N: mutated TriA variant of SEQ ID NO: 2 (protein)", "chain": "B1 chain with P247S, H249N", "modifications": "Pseudomonas"}},
  "note": "Changes are numbered by the printed parent chain. Names and notes keep the numbering of the source.",
  "data": [
    {"type": "biochemical", "conditions": "pH 7.2", "outline": "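Expression: BL21(DE3) Gold, pET24d N-His, pGro7, 0.1 mM IPTG, 25° C, 20 h. Reaction: 25 mM Na phosphate pH 7.2, substrate 1 nM to 10 nM, 30° C. Analysis: UPLC-HR-MS; % degradation vs empty vector.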", "units": {"Degradation in % of 6-cyclopentyl-N4-(2,3,4,5,6-pentafluorophenyl)-1,3,5-triazine-2,4-diamine": "%", "Degradation in % of Melamine": "%"}, "values": [
      {"molecule": "B1", "Degradation in % of 6-cyclopentyl-N4-(2,3,4,5,6-pentafluorophenyl)-1,3,5-triazine-2,4-diamine": 0, "Degradation in % of Melamine": 3},
      {"molecule": "B2", "Degradation in % of 6-cyclopentyl-N4-(2,3,4,5,6-pentafluorophenyl)-1,3,5-triazine-2,4-diamine": 1, "Degradation in % of Melamine": 3},
      {"molecule": "B3", "Degradation in % of 6-cyclopentyl-N4-(2,3,4,5,6-pentafluorophenyl)-1,3,5-triazine-2,4-diamine": 2, "Degradation in % of Melamine": 3},
      {"molecule": "B4", "Degradation in % of 6-cyclopentyl-N4-(2,3,4,5,6-pentafluorophenyl)-1,3,5-triazine-2,4-diamine": 35, "Degradation in % of Melamine": 100},
      {"molecule": "B5", "Degradation in % of 6-cyclopentyl-N4-(2,3,4,5,6-pentafluorophenyl)-1,3,5-triazine-2,4-diamine": 3, "Degradation in % of Melamine": 20},
      {"molecule": "B6", "Degradation in % of 6-cyclopentyl-N4-(2,3,4,5,6-pentafluorophenyl)-1,3,5-triazine-2,4-diamine": 1, "Degradation in % of Melamine": 100},
      {"molecule": "B7", "Degradation in % of 6-cyclopentyl-N4-(2,3,4,5,6-pentafluorophenyl)-1,3,5-triazine-2,4-diamine": 4, "Degradation in % of Melamine": 0},
      {"molecule": "B8", "Degradation in % of 6-cyclopentyl-N4-(2,3,4,5,6-pentafluorophenyl)-1,3,5-triazine-2,4-diamine": 4, "Degradation in % of Melamine": 11},
      {"molecule": "B9", "Degradation in % of 6-cyclopentyl-N4-(2,3,4,5,6-pentafluorophenyl)-1,3,5-triazine-2,4-diamine": 0, "Degradation in % of Melamine": 7},
      {"molecule": "B10", "Degradation in % of 6-cyclopentyl-N4-(2,3,4,5,6-pentafluorophenyl)-1,3,5-triazine-2,4-diamine": 0, "Degradation in % of Melamine": 100},
      {"molecule": "B11", "Degradation in % of 6-cyclopentyl-N4-(2,3,4,5,6-pentafluorophenyl)-1,3,5-triazine-2,4-diamine": 0, "Degradation in % of Melamine": 1}
    ]}
  ]
}
